Laboratory results published in PMC2927781 (2010).
Where no end group is shown, it is not given here. Me2 = dimethyl

What was measured:
[1] = target: T1, PHD_(Pygo1)–HD1_(BCL9) complex (6×His-tagged, PHD linked to HD1) (human, UniProt Q9Y3Y4 340-400; O00512 177-205); assay: ITC
T1 chain: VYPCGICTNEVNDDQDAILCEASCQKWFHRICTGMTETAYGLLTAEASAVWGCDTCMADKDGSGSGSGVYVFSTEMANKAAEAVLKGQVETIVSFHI

[2] = target: T2, PHD_(Pygo2)–HD1_(BCL9) complex (human, UniProt Q9BRQ0 327-387; O00512 177-205); assay: ITC
T2 chain: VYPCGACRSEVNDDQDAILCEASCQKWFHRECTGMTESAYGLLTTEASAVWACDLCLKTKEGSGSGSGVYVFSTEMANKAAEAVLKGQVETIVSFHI

Kd [1]: 3.32 µM
Kd [2]: 2.02 µM
Binder: ARTK(Me2)QTARKSTGGKA [15-mer H3K4me2 histone tail peptide (histone H3 tail dimethylated at lysine 4)]
